This is an account of results in patent publication US20200024330A1.

Holding throughout (test): cell-based or functional assay
Assay [1] addresses HIV-1 92RW020 envelope protein (Env) on pseudovirus (HIV-1).
Assay [2] deals with HIV-1 93RW029 envelope glycoprotein (Env) (HIV-1).
In assay [3] the target is HIV-1 92RW020 envelope glycoprotein (Env) (HIV-1).
Assay [4] has as its target HIV-1 Env of isolate MGRM-D-008 (clade D) (HIV-1).
Assay [5] addresses HIV-1 92UG031 envelope glycoprotein (Env) (HIV-1).
Assay [6] concerns the target HIV-1 92BR020 envelope protein (Env) on pseudovirus (HIV-1).
Assay [7] has as its target HIV-1 Env of pseudovirus TRO.11 (Acute), clade B (HIV-1).
The target in assay [8] is HIV-1 MGRM-F1-018 Env (pseudovirus) (HIV-1).
Assay [9] addresses HIV-1 MGRM-C-025 Env (HIV-1).
The target of assay [10] is HIV-1 Env of isolate 92UG005 (clade D) (HIV-1).
Assay [11] addresses HIV-1 Env of pseudovirus MGRM-Chronic-B-004, clade B (HIV-1).
Assay [12] concerns the target HIV-1 MGRM-C-001 Env (HIV-1).
The target of assay [13] is HIV-1 Env of isolate MGRM-G-027 (clade G pseudovirus) (HIV-1).
Assay [14] deals with HIV-1 MGRM-C-013 Env (HIV-1).
In assay [15] the target is HIV-1 Env of pseudovirus VLGCB3, clade B (HIV-1).
Assay [16] deals with HIV-1 92RW021 envelope glycoprotein (Env) on pseudovirus (HIV-1).
For assay [17], the target named is HIV-1 Env of isolate MGRM-D-013 (clade D) (HIV-1).
Assay [18] addresses HIV-1 Env of isolate MGRM-D-002 (clade D) (HIV-1).
The target of assay [19] is HIV-1 MGRM-A-010 envelope glycoprotein (Env) (HIV-1).
Assay [20] has as its target HIV-1 Env of isolate PVO.4 (HIV-1).

Broadly, the IC50 is the point on the concentration scale where inhibition reaches its midpoint. Higher therefore signals weaker potency in that assay.

1443_C16 (PG16) (TCN-116) (antibody), sequence (VH): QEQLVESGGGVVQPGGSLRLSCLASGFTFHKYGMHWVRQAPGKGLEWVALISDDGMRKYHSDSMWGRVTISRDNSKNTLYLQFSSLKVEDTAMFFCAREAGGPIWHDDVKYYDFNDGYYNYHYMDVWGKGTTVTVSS
1443_C16 (PG16) (TCN-116) (antibody), sequence (VL): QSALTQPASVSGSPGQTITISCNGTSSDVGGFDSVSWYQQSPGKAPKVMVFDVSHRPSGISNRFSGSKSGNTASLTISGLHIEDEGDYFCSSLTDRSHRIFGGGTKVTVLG

Take 4E10 (antibody): the neutralization IC50 in [1] was 3.38 µg/mL; in [6] it was 41.4 µg/mL. The IC50 (µg/ml), pseudovirus neutralization was found to be 15.5 µg/mL in assay [2]; 4.54 µg/mL in [3]; 42.9 µg/mL in assay [4]; 4.94 µg/mL in assay [5]; 1.39 µg/mL in assay [7]; 3.6 µg/mL in assay [8]. The IC50 (µg/ml), pseudovirus neutralization in [10] amounted to 7.46 µg/mL; in [11], 3.7 µg/mL; in assay [13], 1.19 µg/mL; in assay [15], 5.76 µg/mL; in assay [16], 4.87 µg/mL; in [17], 5.38 µg/mL. Besides, the values for the IC50 (µg/ml), pseudovirus neutralization in [18] and in [19] were 9.44 µg/mL and 14.4 µg/mL, respectively. Besides, the IC50 turned out to be 5.58 µg/mL in [9], 5.66 µg/mL in [12] and 2.1 µg/mL in assay [14].
Regarding 1443_C16 (PG16) (TCN-116) (antibody), the neutralization IC50 in [1] is 0.004 µg/mL; in assay [6], greater than 50 µg/mL. Besides, the IC50 (µg/ml), pseudovirus neutralization is 3.83 µg/mL in assay [2]; 0.28 µg/mL in assay [3]; greater than 50 µg/mL in assay [4]; 0.43 µg/mL in [5]; 0.22 µg/mL in [7]; 0.01 µg/mL in [8]. Further, the IC50 (µg/ml), pseudovirus neutralization in assay [10] was greater than 50 µg/mL; in assay [11], 0.01 µg/mL; in [13], 0.01 µg/mL; in [15], 0.4 µg/mL; in assay [16], 0.11 µg/mL; in assay [17], 0.11 µg/mL. Also, the IC50 (µg/ml), pseudovirus neutralization in assay [18] was found to be 0.01 µg/mL; in assay [19], 0.004 µg/mL. Further, the IC50, pseudovirus neutralization (TZM-bl) in assay [20] stood at 12.3 µg/mL. For the same substance, the values for the IC50 in assay [9], in assay [12] and in assay [14] were 0.04 µg/mL, 16.8 µg/mL and greater than 50 µg/mL, respectively.
Consider 1495_C14 (PGC14) (antibody), for which the neutralization IC50 in [1] worked out at 28.6 µg/mL; in assay [6], 0.637 µg/mL. For the same substance, the IC50 (µg/ml), pseudovirus neutralization in [2] was 42 µg/mL; in [3] it was 46 µg/mL; in assay [4] it was greater than 50 µg/mL; in assay [5], greater than 50 µg/mL; in assay [7], greater than 50 µg/mL; in assay [8], greater than 50 µg/mL. Further, the IC50 (µg/ml), pseudovirus neutralization is greater than 50 µg/mL in assay [10]; greater than 50 µg/mL in assay [11]; greater than 50 µg/mL in assay [13]; 21 µg/mL in assay [15]; greater than 50 µg/mL in assay [16]; greater than 50 µg/mL in assay [17]. In addition, the IC50 (µg/ml), pseudovirus neutralization in assay [18] is 29 µg/mL; in assay [19], greater than 50 µg/mL. Besides, the IC50 in assay [9], in [12] and in [14] was greater than 50 µg/mL in each case.
Regarding b12 (antibody), the neutralization IC50 in assay [1] was greater than 50 µg/mL; in assay [6], 27.5 µg/mL. The IC50 (µg/ml), pseudovirus neutralization in [2], in [3], in assay [4], in assay [5], in [7] and in [8] was greater than 50 µg/mL each time. Besides, the IC50 (µg/ml), pseudovirus neutralization in assay [10] was greater than 50 µg/mL; in [11], 0.26 µg/mL; in assay [13] it was greater than 50 µg/mL; in assay [15], 0.15 µg/mL; in [16], greater than 50 µg/mL; in [17], greater than 50 µg/mL. The IC50 (µg/ml), pseudovirus neutralization in assay [18] and in [19] was greater than 50 µg/mL throughout. In addition, the half-inhibitory concentration (IC50) in [9], in [12] and in [14] was greater than 50 µg/mL each time.
